# The DeepSol protein solubility set
# Test: soluble on expression in E. coli; label from the status in PepcDB or PDB records
row,Sequence,soluble on expression in E. coli
1,MHPPIKIQTILLFILTTVHCSAKRLPQIYWNSTNPLVERYAAIGDTLDIVCPFFDENSDELTEQSIIYRVTEEEYENCERRSKAKELGRCTQPYQEEKLKVAFRLMSPNPSGLDYRPGVTYYFISTSTGSRKGLYNEQGGLCASHNLKMVIHITDRNGDIGPHHHRHHHKKTTTTTTTSTSTSTPKTIPPVVEMDSSAEKLWEQFYEKVMPIDNTWPEITRGERVTLYQGNKKDEYEQVPAEVVDFEIHEIGDVESLYSSSGRLRYVLLLPALLLLRIF,not soluble
2,MHQFTSKQDFCHWFNQFQHPQLVENWADIHGVVTITAQGEVKITLPFASNELQRTLQEWIQQQQAFKAVAAFPYHIELGVKALETQVSNAVKGVKNIIAVSSAKGGVGKSTTAVNLALAIAQSGAKVGLLDADIYGPSVPMMLGQEDAKPEVRDGKWMEPIFAHGIYTHSIGYLVNKSEAAIWRGPMASKALAQLLNETDWPELDYLVIDMPPGTGDIQLTLSQQIPVTGTVLVTTPQDLALADARKGAAMFNKVNVPVVGVVENMSYHICSQCGATEHIFGMGGAEKMSQEFGLALLGQIPLHISMREDIDAGVPTVVRRPDSEHSGYYKQLADRVCSTMFWQGKAKPDAISFTMVNLEHHHHHH,not soluble
3,MHSVPSTGFPQSEFSGPFWTGRGVACARPNRYVWTARPSDQSSRRMSTSFSRRLRRLQSQKETALCVGLDPVPARFPPSLQDGRLRTDAVRAFCTTIVEATAPYACAFKPNFAFFEALGPAGLTVLDQVVTTIPDDCLVLGDAKRGDIGHSARHYAASIYEELGLDACTVSPYLGRDSVMPFLEHEGTCTFVLARTSNDGAADLQEACTCDGTPLYRHVARRVQAWNADAPGGAGLVVGATAPAALQDLRSLCPSLPFLVPGVGAQGGDAAAVMDAAATDEGPVLVNSSRSILYASEGPNYANAAADAARALRDALNGGASSSRGAPSPPALEHHHHHH,soluble
4,MHTIPITTDSAASWDWPLQHNDGVVKVTNTSEKFEVGLDAGFFGPNDIDVKVNGIEIIIHLRHDNRPTEYGIVNREVHRTYKLPEDVDPSTVRSHLNSSGVLTITANKL,not soluble
5,MHVALHTVRMYPRNTSMVAIPSRELSPRRDGFRELLETNYQKRDLVHLTAGSVVPLLKNSIWLVVRGMVKLGAVSVHGDELLLGLAGPNEPFGEPLSTVEAYEAVALSDCDLLCLSANEVEQAPQLALAMMDAIGARYRQAEYMLALLGLRRVEERVRGFLEMLAQDYGQPCDDGLRLNLRLTHQEMASALSTTRVTVTRVIGLLRDEGWLKIDAQRHLVIAHLPRR,not soluble
6,MIADWLEQNGYPISSQVLKTEMSGNYMESAEKHVENGEKIDNLLRSQLKIDIRDGTGDDFERKSIKSIGAGRPFAKINMVDKQRAPLKITPLSDEEFRKTMRKRMEMERERLARLSNQAEDDSDDSSSSSDSSTSSASSSSEEKLTFSDILGKPTAAGAEKMIELSQIPNAWGPSKSALVTDDVASTSDPLPAIFNAHLPPLSMGRPPLTKSAKSREIDAIFGSDNVDYDLEDFEQDGVAKKKSILPMEKKKEEAKPKEQELVEPLVLSEGESIDELEDFDTGLLSSGGSDYSF,not soluble
7,MIAGGFGAGKTTAVGAVSEITPLSTEEYLTEASADVDSLAGLASKRTTTVAFDFGRLSLPDAPMPLELFLFGTPGQDRFVDLWYDLSRGAVGAVVLVDTRRLESSFTPVSFFEDIGLPFVVAVNRFDGAHRYHPEQVRAALELPAAVPVVTCDAREPNHVAGVLLALVDHAVNCAATTNRAGHTPSTTLQDALEHHHHHH,not soluble
8,MIDKQSGIPIYIQIQSEIKKKMEDGVWKVGTSIPAERQLAEMFHVSRMTVRQAIQGLVDDNILQRRVGAGTFIAEKKLTERLEAVTSFTNLMLQEGKVPSTRIVSYGIRPASTQEQEALQLPENSNVMKIERIRYGDRVPILYEVAAIPEKIASLLTKEDIMDSLYKAIELKLGQPIGEAEQIMEASLVSEKIAPYLDVKLGSPVMKLRQITTLEDGRPFEFTRSQYVGSRFQFVARIKQ,not soluble
9,MIDTTVFQDKTAVYYTLGCKLNFSETSTIGKILREAGVRTARKGEKADLCIVNTCSVTEMADKKCRQAIHRLVKQHPGAFVVVTGCYAQLKPGDVAKIEGVDVVLGAEQKKDLLQYLGDLHKHEGGEAYTTATKDIRSFAPSCSRGDRTRFFLKVQDGCDYFCSYCTIPFARGRSRNGTIASLVEQARQAAAEGGKEIVLTGVNIGDFGKSTGETFFDLVKALDRVEGIERYRISSIEPNLLTDEIIEYVSRSRSFMPHFHIPLQSGSDEVLQLMRRRYGTELFASKIAKIKEVMPDVFIGVDVIVGTRGETAGYFEKAYEFIHGLDVTQLHVFSYSERPGTQALKIDHVVTPEEKHQRSQRLLALSDEKTKAFYARYIGQTMPVLMEKPKAGALMHGFTANYIRVEVESDAALDNKVVNVLLGDFNEEGTALKGTITQLEHHHHHH,not soluble
10,MIEAALENPVPIKSQLSPTPRYFGSCKWFNVSKGYGFVIDDITGEDLFVHQSNLNMQGFRSLDEGERVSYYIQERSNGKGREAYAVSGEVEGQGLKGSRIHPLGRKKAVSLRCFRCGKFATHKAKSCPNVKTDAKVCYTCGSEEHVSSICPERRRKHRPEQVAAEEAEAARMAAEKSSPTTSDDDIREKNSNSSDE,soluble
11,MIEFSDEDLQKPVRIVIEKIRPYLLKDGGNIEVLGVKSMKIYVALEGACKTCSSSKITLKNVIERQLKMDIHPNLEVVCLENAKEFDKL,not soluble
12,MIEKVYCQEVKPELDGKKVRLAGWVYTNMRVGKKIFLWIRDSTGIVQAVVAKNVVGEETFEKAKKLGRESSVIVEGIVKADERAPGGAEVHVEKLEVIQAVSEFPIPENPEQASPELLLDYRHLHIRTPKASAIMKVKETLIMAAREWLLKDGWHEVFPPILVTGAVEGGATLFKLKYFDKYAYLSQSAQLYLEAAIFGLEKVWSLTPSFRAEKSRTRRHLTEFWHLELEAAWMDLWDIMKVEEELVSYMVQRTLELRKKEIEMFRDDLTTLKNTEPPFPRISYDEAIDILQSKGVNVEWGDDLGADEERVLTEEFDRPFFVYGYPKHIKAFYMKEDPNDPRKVLASDMLAPEGYGEIIGGSQREDDYDKLLNRILEEGMDPKDYEWYLDLRRYGSVPHSGFGLGVERLVAWVLKLDHIRWAALFPRTPARLYP,soluble
13,MIEYAALKFNVVSDPMSETAKKVIVGMSGGVDSSVSAWLLQQQGYQVEGLFMKNWEEDDGEEYCTAAADLADAQAVCDKLGIELHTVNFAAEYWDNVFELFLAEYKAGRTPNPDILCNKEIKFKAFLEFAAEDLGADYIATGHYVRRADVDGKSRLLRGLDSNKDQSYFLYTLSHEQIAQSLFPVGELEKPQVRKIAEDLGLVTAKKKDSTGICFIGERKFREFLGRYLPAQPGKIITVDGDEIGEHQGLMYHTLGQRKGLGIGGTKEGTEEPWYVVDKDVENNILVVAQGHEHPRLMSVGLIAQQLHWVDREPFTGTMRCTVKTRYRQTDIPCTVKALDDDRIKVIFDEPVAAVTPGQSAVFYNGEVCLGGGIIEQRLPLPVLEHHHHHH,soluble
14,MIFLIVLKYPVSLNVIRKLKTGDVVYYTGKIVVMDRSVVDILEKYERYEGTKLYDLTGEIVVLGTFRKNKLQFQEMTEELLERLFLLGVNGVILERVRPFSATKRFSRVLFEPLEEIRGTRRVIYKTPDSKKLEELEVEKLVLRVVQDSSGKVYSKV,not soluble
15,MIGKKSFQTNVYRMSKFDTYIFNNLYINDYKMFWIDSGIAKLIDKNCLVSYEINSSSIILLKKNSIQRFSLTSLSDENINVSVITISDSFIRSLKSYILGDLMIRNLYSENKDLLLWNCEHNDIAVLSEVVNGFREINYSDEFLKVFFSGFFSKVEKKYNSIFITDDLDAMEKISCLVKSDITRNWRWADICGELRTNRMILKKELESRGVKFRELINSIRISYSISLMKTGEFKIKQIAYQSGFASVSYFSTVFKSTMNVAPSEYLFMLTGVAEK,soluble
16,MIIDCHGHYTTAPAAHDAFRKAQIAHHDDPQQPAPQYPHISDDALRESIEQHQLRLLRERGADMTIFSPRASTMAHHIGNEAVSQVWTQRCNDLIARVVQLYPHTFIGVCQLPQSPGVPISHSIAELERCVNELGFVGCNLNPDPSGGHWNGVPLTDRAWYPFFEKMVELDVPAMVHVSGSCNANFHATGAHYLNADTTAFMQFLEGDLFRDFPSLRFIIPHGGGAVPYHWGRFRGLADMLGKPPLATHVMRNVFFDTCVYHQPGIDLLFEVIDIDNILFGSEMVGAVRGIDPQTGHYFDDTKRYIDALTISDADKRKVFEGNARRVYPRLDAQLRARGLLEHHHHHH,not soluble
17,MIIDIHGHYTTAPKALEDWRNRQIAGIKDPSVMPKVSELKISDDELQASIIENQLKKMQERGSDLTVFSPRASFMAHHIGDFNVSSTWAAICNELCYRVSQLFPDNFIGAAMLPQSPGVDPKTCIPELEKCVKEYGFVAINLNPDPSGGHWTSPPLTDRIWYPIYEKMVELEIPAMIHVSTSCNTCFHTTGAHYLNADTTAFMQCVAGDLFKDFPELKFVIPHGGGAVPYHWGRFRGLAQEMKKPLLEDHVLNNIFFDTCVYHQPGIDLLNTVIPVDNVLFASEMIGAVRGIDPRTGFYYDDTKRYIEASTILTPEEKQQIYEGNARRVYPRLDAALKAKGKLEHHHHHH,soluble
18,MIIDINRLDRAFDLIKEGVSKGVFPGAVAAVGTRERVIRLESFGNRCLYPEKLSMNKDTLFDLASLTKVVATNTLFMIFLEKGLISVYDNVSYYLEKFKGKNKDDVTIFNLLTHTAGFVPCKPLYKLCKGYEDSIDYICRCGLSYKPGTKCVYSDFSYILLAYILEKIGGDTLDILCDRYIFKPLYMENTTFKPKGNNIAATEIDKKTKKPLIGVCHDENGRFFGGISGHAGLFSDIYDLCKFSNMLVNEGKGIISYASFKAMTTNHTLGLEDNRGYGWCIKGDKNSFMGDIAFPETFGHNGFTGTSLWVDIKNNIYAILLTNRVHPTRDNLRIIRFRRVFSNAVLASLTR,not soluble
19,MIIKPAGDSAFLISFGDEISEEINDRVHSLAKAIEKESPEWLVELVPAYSSLLVIYDPLKASYEEVESYLKRISAREVERIKGKTIEIPVAYGGEFGPDIEFVAQYNGLSVDDVIEIHSKPLYRVYFLGFLPGFAYLGGMDERIATPRLEKPRLKVPAGSVGIAGKQTGWYAIESPGGWRIIGRIPLRTFNPGKVPPSIVLPGDYVKFVPIDEKEFWEIYGREWE,soluble
20,MIIQDIIEAIEAVCPRAYQESYDNSGVQVGDTKREATGALLCVDVTEAVLEEAIRLGCNLVIAHHPILFKPLKRLTGSSYVERCVELAVRHGLVLYAAHTNADNAPQGLNALLAERFGLLNTRPLEPLQGKLLELVTFVPTEYADAVRQALWQAGAGRLGHYDCCSFSHAGTGTFRAAEGANPFVGAISELHHEAEERISLVLPAYRQGTVLQALHAAHPYELPAVSLIPLANDHPSAGGGIVGDLPSPISEREMLLHIKEVFGLKVLSHSAWRERPLRRMAICGGSGAFMWRRAAQEGADLFLTGEAKYNDFFDAGEHLLLVTIGHYESEEVANELFMRIISQKFPTFATHKSSVATNPVNYL,not soluble
21,MIITIPIKNQKDIGTPSDSVVVLGYFDGIHKGHQELFRVANKAARKDLLPIVVMTFNESPKIALEPYHPDLFLHILNPAERERKLKREGVEELYLLDFSSQFASLTAQEFFATYIKAMNAKIIVAGFDYTFGSDKKTAEDLKNYFDGEVIIVPPVEDEKGKISSTRIRQAILDGNVKEAGKLLGAP,not soluble
